Substrate in this data set: O=[N+]([O-])c1ccccc1O[C@@H]1O[C@H](CO)[C@H](O)[C@H](O)[C@H]1O
Briefly: purified protein. To be noted: 50 °C (optimum; also at 10, 20, 30, 40, 55 °C), pH 6.5, 0.02 M potassium phosphate. It counts as biochemical, Arthrobacter sp.

B1: Arthrobacter sp. 32c β-D-galactosidase (Arthrobacter sp.) (protein)
chain: MGKRFPSGWFSPRVHPPRRQRSPMTNQATPGTASVWNNIEGIGFGGDYNPEQWPVSVRLEDLELMQEAGVNFLSVGIFSWALLEPAEGQYDFGWLDDVMDNLHGIGVKVALATATAAPPAWLVRKHPEILPVTADGTTLGPGSRRHYTPSSAVYRKYAAGITRVLAERYKDHPALALWHVDNELGCHVSEFYGEEDAAAFRLWLERRYGTIDALNAAWGTAFWSQHYGSFEEILPPGVAPSTLNPGQQLDFQRFNSWALMDYYRSLVAVLREVTPAVPCTTNLMASSATKSMDYFSWAKDLDVIANDHYLVAADPERHIELAFSADLTRGIAGGDPWILMEHSTSAVNWQPRNQPKMPGEMLRNSLAHVARGADAVMFFQWRQSFAGSEKFHSAMVPHGGRDTRVWREVVDLGAALQLLAPVRGSRVESRAAIVFDYEAWWASEIDSKPSIDVRYLDLLRAFHRSLFLRGVSVDMVHPSASLDGYDLVLVCTLYSVTDEAAANIAAAAAGGATVLVSYFSGITDEKDHVRLGGYPGAFRELLGVRVEEFHPLLAGSQLKLSDGTVSSIWSEHVHLDGAEAFQTFTGYPLEGVPSLTRRAVGTGAAWYLATFPDRDGIESLVDRLLAESGVSPVAEADAGVELTRRRSADGGSFLFAINHTRAAASVRASGTDVLSGERFTGTVEAGSVAVIAED
notes: full length, recombinant, no tag apparent (own stop codon in reverse primer); starts MGKRFPS (from primer)
Usually Km stands for the concentration of substrate that gives half-maximal velocity. Usually kcat stands for the number of substrate molecules converted per active site and unit of time at saturation. The term kcat/Km denotes the turnover number divided by the Michaelis constant. B1: the Km is 2620 ± 210 µM, the kcat turned out to be 212.4 ± 1.67 s⁻¹ and the kcat/Km amounted to 81100 ± 7760 M⁻¹ s⁻¹.

The values above are taken from publication PMC2723119, “A new cold-adapted β-D-galactosidase from the Antarctic Arthrobacter sp. 32c – gene cloning, overexpression, purification and properties” (BMC Microbiology, 2009).
